For assay [1], the target named is T1, human CC chemokine receptor 4 (CCR4) (human, UniProt P51679 1-360).
T1 construct: whole, on cells; Always presented on cells; also called CD194; human CCR4
T1 sequence (looked up): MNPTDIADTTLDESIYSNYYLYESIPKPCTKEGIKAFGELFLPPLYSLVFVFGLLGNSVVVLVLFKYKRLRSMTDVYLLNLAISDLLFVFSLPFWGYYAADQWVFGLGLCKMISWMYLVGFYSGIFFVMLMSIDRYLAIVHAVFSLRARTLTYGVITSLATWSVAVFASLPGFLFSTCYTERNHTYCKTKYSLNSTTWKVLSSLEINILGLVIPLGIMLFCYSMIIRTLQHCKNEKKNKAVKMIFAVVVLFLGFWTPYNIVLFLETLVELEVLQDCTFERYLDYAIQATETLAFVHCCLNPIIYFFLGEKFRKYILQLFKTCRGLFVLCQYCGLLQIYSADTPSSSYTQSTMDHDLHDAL
Kind of assay: flow cytometry competition on DT-40-CCR4+ cells; IgG titrated, competitor biotinylated MDC (ca. 10 nM). The procedure: (§1) The competition binding assays were performed with biotinylated MDC or biotinylated TARC on DT-40-CCR4+ and CCRF-CEM cells. DT40 and CCRF-CEM cells were cultured as described in Example 2. TARC and MDC were biotinylated using standard procedures. The biotinylation process causes some losses, so the concentrations of biotinylated MDC and TARC recited herein are approximate.
(§2) The cells were harvested from culture flasks, washed 2 times with PBS (400×g, 5 min, 4° C.) and resuspended in PBS containing 0.2% BSA and 0.09% NaN3. 1×10^5 cells per well were aliquoted into V-shaped 96-well plates (Greiner Bio-One, Frikenhausen, Germany). Cells were centrifuged (400×g, 5 min, 4° C.) and resuspended in 50 μl IgG, single chain or unlabeled ligand (1:10 dilution series starting on 100/500/26, 4 μg/ml) mixed with a fixed concentration of biotinylated ligand (10 or 20 nM, see legend to FIG. 24). The cells were incubated for 2 hours at 4° C. and mixed with a pipette every 45 min. The cells were washed three times with 150 μl PBS with 0.2% BSA and 0.09% NaN3 and stained with 3 μg/ml streptavidin PE (BD Biosciences) for 45 minutes at 4° C. […] Apparent binding affinities (KD) were calculated according to the following equation derived from previously described methods (Kipriyanov et al, 1997b; Schodin & Kranz, 1993): […]
(In flow cytometry, cells or beads pass a laser one at a time.)

Assay [2] concerns the target T1, human CC chemokine receptor 4 (CCR4). Put plainly: flow cytometry competition on CCRF-CEM cells; IgG titrated, competitor biotinylated TARC (ca. 20 nM). The procedure: as §1, §2
Assay [3] has the same target. Put plainly: flow cytometry competition on CCRF-CEM cells; IgG titrated, competitor biotinylated MDC (ca. 10 or 20 nM); second of three IC50 values on CCRF-CEM cells; inhibition of biotinylated MDC. As for the experimental part: as §1, §2
For assay [4] the target is unchanged. Put plainly: flow cytometry competition on DT-40-CCR4+ cells; IgG titrated, competitor biotinylated TARC (ca. 20 nM). As for the experimental part:
as §1, §2

Assay [5] shares this target. Put plainly: flow cytometry, IgG titration on CCR4+ DT40 cells (2); one site-specific binding fit (Prism). The procedure: (§3) The IgG forms of antibodies 17G, 9E and KM3060var using various CCR4⁺ cell types were used (see Example 2).
(§4) For the flow cytometry experiments, the cells were harvested from the culture flasks, washed 2 times with PBS, re-suspended in PBS with 0.2% BSA and 0.09% NaN₃ and finally aliquoted 1×10⁵ cells per well into V-shaped 96-well plates (Greiner Bio-One, Frickenhausen, Germany). Cells were centrifuged at 400×g for 5 min and then incubated at 4° C. for 45 min with different antibody dilutions.
(§5) After washing with PBS with 0.2% BSA and 0.09% NaN₃, the cells were stained with 10 μg/ml of RPE-conjugated goat anti-human IgG (AbDSerotec, Düsseldorf, Germany) for 30 minutes at 4° C. The stained cells were washed, re-suspended in 200 μl PBS with 0.2% BSA and 0.09% NaN₃ and transferred to a U-shaped 96-well plate (Corning, Schiphol-Rijk, The Netherlands) for acquisition on EasyCyte flow cytometer (Guava Technologies, Hayward, Calif., USA).

For assay [6] the target is unchanged. Put plainly: flow cytometry, IgG titration on CCRF-CEM cells; one site-specific binding fit (Prism). The procedure:
as §3, §4, §5

Assay [7] shares this target. Kind of assay: competition flow cytometry on CCR4-transfected DT40 cells: unlabelled IgG against 7 nM biotinylated 9E IgG, streptavidin-RPE. The procedure: To analyze the epitope binding of anti-CCR4 antibodies 17G, 9E and KM3060var, competition experiments were performed using flow cytometry. The binding of biotinylated antibodies to CCR4 transfected DT40-cells was challenged in the presence of different concentrations of non-biotinylated anti-CCR4 antibodies. The CCR4⁺ DT40 cells were harvested from culture flasks, washed 2 times with PBS, re-suspended in PBS with 0.2% BSA and 0.09% NaN₃ and finally aliquoted 1×10⁵ cells per well into V-shaped 96-well plates (Greiner Bio-One, Frickenhausen, Germany). Cells were centrifuged at 400×g for 5 min and then incubated at 4° C. for 3-4 hours with fixed amounts of biotinylated IgG and different concentrations of non-biotinylated antibodies. After washing with PBS with 0.2% BSA and 0.09% NaN₃, the cells were stained with 2.5 μg/ml of Streptavidin—RPE (BD Pharmingen, San Diego, Calif., USA) for 30 minutes at 4° C. The stained cells were washed, re-suspended in 250 μl PBS with 0.2% BSA and 0.09% NaN₃ and transferred to a U-shaped 96-well plate (Corning, Schiphol-Rijk, The Netherlands) for acquisition on EasyCyte flow cytometer (Guava Technologies, Hayward, Calif., USA). The results shown in FIGS. 10 A, B and C illustrate that the 17G and 9E antibodies have epitopes that are identical or at least overlapping.

The target is the same in assay [8]. Kind of assay: flow cytometry, IgG titration on CCR4+ HEK293T cells; one site-specific binding fit (Prism). As for the experimental part: as §3, §4, §5

Consider 2 molecules from patent US20160208003A1 (AFFITECH RESEARCH, published 2016).

Usually IC50 stands for the concentration at which inhibition is half-maximal. Broadly, the Kd is the constant that tells how readily two partners part at equilibrium. A high value points to lower affinity.

Values joined by “and” are separate entries in the source; they are usually repeats but may differ in a detail not shown here. Equal values may be shown once.

B1: 9E10J IgG (full length human IgG1, lambda) (antibody, V domains shown)
VH: QVQLVQSGAEVKKPGSSVKVSCKASGGTFSSYAISWVRQAPGQGLEWMGGIIPIFGTANYAQKFQGRVTMTRDTSTSTVYMELSSLRSEDTAVYYCARRGGSYFDYWGQGTLVTVSS
VL: SYVLTQPPSASGTPGQSVTISCSGSTSNIGSHYVFWYQQLPGTAPRLLIYRNHQRPSGVPDRLSGSKSGTSASLAISGLRSEDEADYYCAVWDDTLSGWVFGGGTKLTVLG
notes: also called IgG 9E10J; unmodified 9E10J
As to B1, the IC50 is 0.76 nM in assay [1]; 4.26 nM and 4.57 nM in assay [2]; 6.28 nM in assay [3]; 0.26 nM and 0.4 nM in assay [4].

B2: 9E IgG (full length human IgG1, lambda) (antibody, V domains shown)
VH: QVQLVQSGAEVKKPGSSVKVSCKASGGTFSNYAISWVRQAPGQGLEWMGGIIPIFGTANYAQKFQGRVTITADESTSTAYMELSSLRSEDTAVYYCARRGGSYFDYWGQGTLVTVSS
VL: SYVLTQPPSASGTPGQSVTISCSGSTSNIGSHYVFWYQQLPGTAPRLLIYRNHQRPSGVPDRLSGSKSGTSASLAISGLRSEDEADYYCAVWDDTLSGWVFGGGTKLTVLG
notes: also called IgG 9E; IgG1 9E
As to B2, the Kd turned out to be 0.17 nM in assay [5], 0.39 nM in assay [6] and 0.36 nM in assay [8]. Moreover, the “IC50 (read off the curve)” value in assay [7] was ~3 nM.
